# In a protein production outcome set (Wang et al. 2014):
# Assay: label from the status in PepcDB records
# 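Also: failed if final PepcDB status was selected cloned or expressed and not failed if soluble or beyond.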
row,Sequence,protein production
1,MSEKRLPLKPVLRIDFPPGERLGHGKVELMQLIAETGSISAAGRAMDMSYRRAWLLVDALNHMFRQPVICSQRGGKQGGGAALTVFGAELLERYRGMEERMNEALREDIDWLEANRNPQDALNRDREPPTL,not failed
2,MAEHIITLVLSGERLDVTTSTPFVVALRDLLYEGDWELLKEDMKKKENIMKEVQTCEKLEKVVHLDETVYEPLIFPEFQEWLREENITPKDFKNVSLKGLYDLALEYADRNLYDIAHDIIKFMLDIDENYAPAYELKGSLLVEQGKIEEGIKFLDKAVEIDPWLVQAYASLGEAYYNLGDYEKAIHYWERELEYNPNDKITYFMITEAYYEMNRKDLAVKTLERLLEIDPDNIPALYQLSQLYRELGNEEKAREMEEKIMNCKPKYPTELEPWARVMLKHGRYKEVAEELEKIVESSPLNTLARLLLVVPYVKLGQIDKAREILDDIGQSNFWYYYGKKEILDELLTEEEKRACGIS,failed
3,MSLSNSKSTTTKDTVATLPNGASSLTETYGLWSINCGIQEGKKVCFMHRQEVNDQNRVVVAMSVVLNADGVVSGNLTVPFGILVSKPVRLQVDEGKAVIETGIRTCVPAGCIVPIVFDKNYVAALRAGKHLKLAMTIAAPGEPPLNDLFVQLNGFSNALNRLIALQKEGHHHHHH,not failed
4,MVVTPLIVLLVSVLGYANLNSTELGKLKLNRLVPSRLAITLFISGTVILFGAVFATFLLLLLWGLITLVVSGSLSSAWVAMQTLTGSPGGVEPDKSSVLLLFTIGLVISFLSVTKFQSKADANWKQNNSKFLIHKLVDDELELFLLRALEMDDFIPHNGDESPDKRMLVRVVLSNRKVYIGNLIRCDITRGVCSNIVLVPMHSGYQDESTLELQLTEHYEKHYSAELSSDATELQIKDFLNQYSLTIPVHHLVTASLFDLTAYQKFLTEKLNSM,failed
5,MKVYFDDIYVSTARQFELVDITDQVEQIVEKSGIKNGICLIFVAHSTAAIVANEHERGLMEDILTKIKEFTEPSRSWKHNLIDDNAHAHLGATFLGAERVFPVREGKLVRGTWQNIFLVELDGPRSERHITVEILGE,not failed
6,RPAVFPRMGVLPARVALLGQGQHWGVDFCLNVFRANFAEDREIQSEDVVRDLLRAQDLDADALIAQARQESTKEALRKQVDRARALGIFGAPTFMVDGEMFWGNDRLEDALA,failed
7,MAEFLHRFAQGFAALNKDNLDQVAELYSEDVSFSDPMHDIHGLAAMQRYFAELYANVRDLHFDFHAFDEVRPGEGYLVWTMSYSHPRLAGGRTIRVEGCSHLKWRDKVYRHRDYFDAGALLYEHLP,failed
8,KRGRSVLVLDHAKKPGRKILISGGGRCNFTNYDVSASNYLCQNPHFVKSALSQYTNWDFISMVSKHGIEFEERDHGQLFCVDAFTAKDIVKMLLAECDMPNIQQRYQCDVHTIEKTEEGFRLHAGTEPVECESLVVATGGLSMPKLGATPFGYKVAEQ,failed
9,MLKQPIQAQQLIELLKVHYGIDIHTAQFIQGGADTNAFAYQADSESKSYFIKLKYGYHDEINLSIIRLLHDSGIKEIIFPIHTLEAKLFQQLKHFKIIAYPFIHAPNGFTQNLTGKQWKQLGKVLRQIHETSVPISIQQQLRKEIYSPKWREIVRSFYNQIEFDNSDDKLTAAFKSFFNQNSAAIHRLVDTSEKLSKKIQPDLDKYVLCHSDIHAGNVLVGNEESIYIIDWDEPMLAPKERDLMFIGGGVGNVWNKPHEIQYFYEGYGEINVDKTILSYYRHERIVEDIAVYGQDLLSRNQNNQSRLESFKYFKEMFDPNNVVEIAFATEQ,failed
10,MGTDTAQARPTDEAAERRREQRGWYFYDWACSVYSTSVLTVFLGPYLTSVAKSAADADGYVHPLGVPVRAGSFFAYSVSLSVIVAVVVMPLVGAAADRTGRKKPLLAVTAYVGAAATAGMFFLDGDRYLLGGVLLLVANAAQAVSMMLYNSYLPQIAPPEERDAVSSRGWAFGYAAGALVLIANLVLFLAHDSFGVSESTAVRICLASAGLWWGAFTLIPLKRLRDRGSPVKEITAPGPRRLAATVRDMRRHPLTLSFLLAYLIYNDGIQTVISQASVYGSEELGLSQSTLIVAVLLVQVLAVGGALGMGRLARTYGARRTILGSLVAWTVTLGAGYFLPAGAPFWFFVLASGIGLVLGGSQALSRSLFSHLVPAGKEAEYFSAYEMSDRGMSWLGPLLFGLTYQLTGSYRDAIISLVAFFVVGFVLLARVPVRQAVRDAGNSVPERI,failed
11,SVMCAAIAAGAFAQGQGQGLAGINEATSLMTSYFDPATKLCYAIGAVLGLVGGIKTYGKFSSGDPDTSKTAASWFFACIFLIVAATILRSFF,failed
12,MNTKKESALSFPSAGIESFGERLKELMGDESLRAFANAIDTSEGGVRKWFTQSTMPSFDKMVRIARRYNVNLEWLCTGEGPKFPGETAAYESVICKTEEFSEEYALIDGYHTQVSTGHGAQWDNERVRRKLAFRSKWLRYRGLQPENLRVVFAKGDSMEPTIHSGDSILVDITDANLSDGSIFVLRIGDDLFAKRVQVHIDGSITIISDNKEYREQRVPVAELGLLSVVGKVVWIGKDVK,failed
13,EVGVNMAVTPGKVIFQNEIMQLIQYEPATATVQRTPLLIVPPWINKYYILDLKPEKSFIKWCVDQGLTVFVISWVNPDKSLADKDFADYMKLGPLTAMDVVEKVTGEMKVHTLGYCVGGTLLASTLAWLAERRRVRVTSATFLTTQVDFTHAGDLMVFVDEEQISAVEREMKVTGVLEGAKMAMAFNMLRPNDLIWSYVVNNYLKGQPPQAFDLLHWNSDATRMPAANHSYYLRNCYLDNKLSAGTMVLDNTTLDLTKVKVPIYNLATREDHIAPAESVLYGSQFFGGPVKFVLSGSGHI,failed
14,MMIMNNFDEKKLIQEFSKIQSELSPRIKLENNFQIEEIQFIAGVDLAYWNVNKTKYGTCCIVIIDYGTKEVVEKVYSYGEIPIPYIPGFLAFRELPLIIEAVKKLTKQPDIYFFDGNGYLHYRHMGIATHASFLLNKPTIGVAKSYLKIRDVDFIMPENLKGSYTDIVINNEVYGRTLRTTKNVKPIFVSCGNWIDLDTSTEIVMNCINNESRLPIPVRLADLETHKMRKKLMEGLEHHHHHH,failed
15,MDIHQELKELSKFLSEYSTSLMAVGVQTSRIVRNTSRIAESFGFFCDMTIFQKTIIMTLRDADNSHSYSTVNKIKPMGLNFAINSALSTLSWEAYDEHLSLSELQRRYHEIVSKPRESKWLVLILVAFANASFCRLFQGDFISMGIVFVATLAGFFVRTELMGRHWNHLAIFIISSFIASMIGSTGYLMHWGDTPDMALGTSVLYLIPGVPLINAIMDIIDGHVLAGTSRFINACLLIICIAIGLSMTLLITGISTL,failed
16,MKELNDIEVTCVSGGTLSGMIVGAVDGAATGMAIGGKWGGAGGFGFGALSQLVGLIVPTAMGAIAGGTVGLFTNAETAVGYLGQYRENFGPGDVGRTTI,failed
17,MNHLKKLVSILICTLLIVSLLPFSVWADSQERDGTDVEEITTKEKVTQETTSNETTSEPLKGTTVNKAINAKSFPTGNYSGDFSINSQKDVIESGQTVNYNIYLKITGPNTRYQNAKLVINLPKNGEFNQSLNELKIAGATPSYNKTTRQLVYTYQTLNSGVVDKVILKMTTKNGYTPNGTKLVVTGELSADNLSEKVTEQAETTVNATATTALSNDFTKVENSINNNPSQGDIGIWSFNLNIPKKSTGSLFMEEGKKIVIEYTLADKLDYLGVAGDTPEPTKVEGQKLTWEIAAPTYLEQEKANSLLNKTFQIRTFFQPTIPNFATVENKAVATTNFVTLTDSIVDTSKASVSVSASDPATIPPTIGSVYAPAHRGPVDANWGIATVTGNPDIKVYDTAKLGFSLMLNSAMNDSPWYDFLYYDAYYNIDDNLNLDYFRSGDFYFKPNVNYPGWAQLKKSPKYNLLVKYDGDTDWTTLKEDVELSKMYSRKDLGIPDDKHVSKVWLHFTYAPAGMYAADLSFFTTVKEGYVGEVRNSTQINMYGADSQDYIHYYDDTNPWPEAWKNYAGDRTAQIIPQPTGKNKFVQGSVVFDDTDGNLINIGDNSISVNLESNKASISRLKGPFEAMVLLPSGVKMKNTEQNGFKVTVLNENYQNAGRQLLKVKWDKKTLLPAEKLTAKINVSVAKDTPSNMTVEMFGFLQDTDFNVPEVSGTPTISDTKMEIDSNDINQNGNSEESRITSGNHYILNTSNHLKISKKAKGNRDKEYSGLANATTNSIVSYQLSLENDSDEKIANMVLMDVLPSENDLGITDNSERGSKFNLALTKAVEVPKEWKDKVEVTYSTAKNPKRAGILDKHTIYPIGTEPLVDNTEATQADWLTASEVKDWSNIYSFKIELKEGIEWIPGKSMKIQFDLKTPKKNQIDKTLLKQQTKKEDRAAWNSFAVAVNNSQVIEPAQVGVALDDSVAPVTVQYVDQNHKQIASPETLTGAYGEKFTAKQKKINNYSLVKIPANVSGTFNEKAQTITFIYQKVTAGRIIVNYVDKNGEKIADSIVLNGKLNSSYTTSSKKISGYKLYQTPKNATGKFLNTSQTVTYVYERTSNLSISSSNKGTENVKKLAKLPHTGDSTTTNLWVIIGLFMLSGAFVIMKKR,failed
18,MIRLNVFVRVNETNREKAIEAAKELTACSLKEEGCIAYDTFESSTRRDVFMICETWQNAEVLAAHEKTAHFAQYVGIIQELAEMKLEKFEF,not failed
19,MRMKRFLTIVQILLVVIIIIFGYKIVQTYIEDKQERANYEKLQQKFQMLMSKHQEHVRPQFESLEKINKDIVGWIKLSGTSLNYPVLQGKTNHDYLNLDFEREHRRKGSIFMDFRNELKNLNHNTILYGHHVGDNTMFDVLEDYLKQSFYEKHKIIEFDNKYGKYQLQVFSAYKTTTKDNYIRTDFENDQDYQQFLDETKRKSVINSDVNVTVKDKIMTLSTCEDAYSETTKRIVVVAKIIKVS,not failed
20,MFIMQPEDTMTLIHDIILASWDILLEAAPYVLFGFFVAGLLKAYVPASFVARHLGRGHVGPVFKAALFGIPLPLCSCGVIPAAAGLRQQGASKGATTSFLIATPETGVDSMAVTWALLDPVMTVARPFAALLTSVAAGLMVDLFPERKRGESEISPPVMSPSRDAALHDGPTTLPAPVIAPVLHGAAGIAAAGSVSLGPIREHAACTCSGHASVAASACCGTSHSVSAPSGASCGCGSAAHAHSGTGCCGHDTPIGQVSGGFSGVVERFRGGMRFAFGELVADIGGWLLLGVVLAAVITILIPDDLFSGTFASGIGGILLMMVVGIPLYVCATASTPIAAAFALKGISPGAALVFLLAGPATNVATITVVARMLGRKAAVIYVAVIGVMSVALGLAVNMLYGWLGMGVTGWVQGSADAEPGMLSAVAAVVLLLLVLYQWLPALVARLRGEAHPAGCGCGH,failed
21,MNTFAIPAPLIDAWRTTLETLRNLTGLGFGLLTRENGGELEIMVTAGELPSPFAEGYCLKGGPEGPLCAVVHTLARSLLIPDTTADARWASNPAVKAGVRAYFGLPLRLPTGALFGTLCLGSMSPVTGHDAVLKPLHCFATLVEQHIALLSTNALLRSQLDALPGASFASDPHGQMLFASNRCGSLLDLHPADIPGSDVDTVFNRIAALCESPEECHAILRRSFTLGGPSNGKLAFDDGRTIRWQARRLREDAGSVLGCTWFLEDATAELQARAGLTRSEALFRGLFNNAAVGIVLLDRQGFVVRSNVACARMLGTSPEQMHGLSFRAVLPPEDADQHLEEMQSLAEGETDELHGCWEMLHRNGSRLRVDLHGARLPGSGEEVVMLVGVDVTEQWRTERALAESERRYRALFDNAQAGIFRTSLADGTFLEANLRMAQMFGYDDVATFMAEYRAAENYVDPADRALMLDRLRTSGSFATMETHMRRRDGTTTWFLYSGTLDGDTIIGVANEISEMRATQEALRRSEERYRALFDNAADGLLLYEADGTLIDVNETIARRLGESREAIVGRNVASIVEPEVLERVRPRLAEILETGHASFESVHRTAMGPVNVEVHARRIEFEGRFVVLSSARDITERKNLEAALLREATTDPLTGGRNRRQFFVDANREFARALRHDSGLAVLMLDIDHFKNVNDLYGHQAGDEVLRAFAACCVEALRAYDVFGRLGGEEFAALLPAASPEEAMETAERLRKRVERRSVVYEGTALQCTVSVGVTSLAAADLGFDDMLRRADRALYAAKDHGRNRSEMAPMPMVPAEIPPPRKPFRE,failed
